Tests used:
[1] = molecular target: T1, recombinant human VEGF165 (human, UniProt P15692-4 27-191); assay: Biacore epitope binning, VEGF165 captured on immobilised VEGFBII23B04
T1 construct: also called hVEGF165; rhVEGF165
Method: Biacore-based epitope binning experiments are performed to investigate which VEGF binders bind to a similar or overlapping epitope as VEGFBII23B04. To this end, VEGFBII23B04 is immobilized on a CM5 sensor chip. […] Purified VHHs (100 nM) or periplasmic extracts (1/10 diluted) are then injected with a surface contact time of 240 seconds and a flow rate of 10 uL/minute. Between different samples, the surface is regenerated with regeneration buffer (100 mM HCl). Processed curves are evaluated with Biacore T100 Evaluation software.

[2] = molecular target: T1, recombinant human VEGF165; assay: VEGF165/VEGFR2 AlphaScreen
[3] = molecular target: T1, recombinant human VEGF165; assay: Biacore, periplasmic extract on hVEGF165 chip, two phase decay fit
Method: (§1) Dissociation rates of inhibitory VHHs are analyzed on Biacore (Biacore T100 instrument, GE Healthcare). HBS-EP+ buffer is used as running buffer and experiments are performed at 25° C. […] After immobilization, surfaces are deactivated with 10 min injection of 1M ethanolamine pH8.5. A reference surface is activated and deactivated with respectively EDC/NHS and ethanolamine. Periplasmic extracts of VHHs are injected at a 10-fold dilution in running buffer for 2 min at 45 μl/min and allowed to dissociate for 10 or 15 min. Between different samples, the surfaces are regenerated with regeneration buffer. Data are double referenced by subtraction of the curves on the reference channel and of a blank running buffer injection. […] is evaluated by fitting a two phase decay model in the Biacore T100 Evaluation software v2.0.1.

[4] = molecular target: T1, recombinant human VEGF165; assay: Biacore, periplasmic extract on hVEGF165 chip
Method: as §1

T1 sequence (P15692 other isoform, or with tags, fused parts or gaps limits assumed): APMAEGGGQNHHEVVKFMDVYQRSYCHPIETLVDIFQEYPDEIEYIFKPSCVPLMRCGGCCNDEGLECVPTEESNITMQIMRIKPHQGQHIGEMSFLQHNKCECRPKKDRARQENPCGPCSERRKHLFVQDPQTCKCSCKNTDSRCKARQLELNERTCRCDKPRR

| binding result [1] | % inhibition [2] [%] | IC50 [2] [nM] | Binder | other results |
| --- | --- | --- | --- | --- |
| binds | – | – | VEGFBII10G05 (VHH) VHH: EVQLVESGGGLVQAGESLRLSCVASGITFSNYNMGWFRQAPGKEREFVATIRHHGYDTYYAESVKGRFTISRDNAKNTVYLQMNSLKPEDTALYSCAKKLFWDMDPKTGFSSWGQGTQVTVSS | – |
| binds | – | – | VEGFBII05B03 (VHH) VHH: EVQLVESGGGLAQAGDSLRLSCAASGRSFSHYNMGWFRQAPGKEREFVASIRGGGGSTTYANSVKDRFTISRENAKNTVYLQMNSLKPEDTAVYYCAATAFYRGPYDYDYWGQGTQVTVSS | – |
| binds | – | – | VEGFBII10E07 (VHH) VHH: EVQLVESGGGLVQAGGSLRLSCAASGRTFSNYAMGWFRQAPGKERVLVADISSSGINTYVADAVKGRFTISRDNAKNTVYLQMNSLKPEDTAVYYCAASAWWYSQMARDNYRYWGQGTQVTVSS | – |
| binds | – | – | VEGFBII08D09 (VHH) VHH: EVQLVESGGGLVQAGGSLRLSCAASGRSFSDNVMGWFRQAAGKEREFVAHISRGGSRTEYAESVKGRFTISRDNTKKTMYLQMNSLKPEDTAVYYCAASRSVALATARPYDYWGQGTQVTVSS | – |
| binds | – | – | VEGFBII06G02 (VHH) VHH: EVQLVESGGGLVQPGGSLRLSCAASGNIFSNNAMAWYRQAPGKQRELVARISSGGGFTYYLDSVKGRFTVSRDNAKNTVYLQMNSLKPEDTAVYYCNAAYRTYNYWGQGTQVTVSS | – |
| binds | – | – | VEGFBII11C08 (VHH) VHH: EVQLVESGGGLVQAGGSLRLSCAASGRTLSSYGLGWFRQAPGKEREFVAAIGWSGSSTYYADSVKGRFTVSVDNAKNTVYLKMNSLEPEDTAVYYCAAKVRNFNSDWDLLTSYNYWGQGTQVTVSS | – |
| – | 100 | 0.209 | VEGFBII111D05 (VHH) VHH: EVQLVESGGGLVQTGGSLRLSCEASGRTFSSYSMGWFRQAPGKEREFVVAISKGGYKYDSVSLEGRFTISRDNAKNTVYLQINSLRPEDTAVYYCASSRAYGSSRLRLADTYEYWGQGTLVTVSS | – |
| – | 100 | 0.227 | VEGFBII114D03 (VHH) VHH: EVQLVESGGGLVQTGDSLRLSCAVSGRTFSSYSMGWFRQAQGKEREFVVAISKGGYKYDSVSLEGRFTISKDNAKNTVYLQINSLRPEDTAVYYCASSRAYGSSRLRLADTYEYWGQGTLVTVSS | – |
| – | 100 | 0.199 | VEGFBII114D02 (VHH) VHH: EVQLVESGGGLVQTGGSLRLSCEVSGRTFSSYSMGWFRQAPGKEREFVVAISKGGYKYDSVSLEGRFTISRDNAKNTVYLQINSLRPEDTAVYYCASSRAYGSSRLRLADTYEYWGQGTLVTVSS | – |
| – | 100 | 0.29 | VEGFBII113E03 (VHH) VHH: EVQLVESGGGLVQTGDSLRLSCEVSGRTFSSYSMGWFRQAQGKEREFVVAISKGGYKYDSVSLEGRFTISKDNAKNTVYLQMNSLRPEDTAVYYCASSRAYGSSRLRLADTYEYWGQGTLVTVSS | – |
| – | 100 | 0.215 | VEGFBII114C09 (VHH) VHH: EVQLVESGGGLVQPGDSLRLSCEVSGRTFSSYSMGWFRQAPGKEREFVVAISKGGYKYDSVSLEGRFTISKDNAKNTVYLQINSLRPEDTAVYYCASSRAYGSSRLRLADTYEYWGQGTLVTVSS | – |
| – | 100 | 0.366 | VEGFBII111G06 (VHH) VHH: EVQLVESGGGLVQPGGSLRLSCAASGRTFSSYSMGWFRQAPGKEREFVVAISKGGYKYDSVSLEGRFTISRDNAKNTVYLQMNSLRPEDTAVYYCASSRAYGSSRLRLADTYEYWGQGTLVTVSS | – |
| – | 100 | 0.253 | VEGFBII113A08 (VHH) VHH: EVQLVESGGGLVQTGGSLRLSCEVSGRTFSSYSMGWFRQAPGKEREFVVAISKGGYKYDSVSLEGRFTISKDNAKNTVYLQINSLRPEDTAVYYCASSRAYGSSRLRLADTYEYWGQGTLVTVSS | – |
| – | 100 | 0.221 | VEGFBII112D11 (VHH) VHH: EVQLVESGGGLVQPGGSLRLSCEASGRTFSSYSMGWFRQAPGKEREFVVAISKGGYKYDSVSLEGRFTISRDNAKNTVYLQINSLRPEDTAVYYCASSRAYGSSRLRLADTYEYWGQGTLVTVSS | – |
| – | 100 | 0.189 | VEGFBII118E10 (VHH, VEGFBII23B04 with the S60A mutation, purified protein) VHH: EVQLVESGGGLVQTGDSLRLSCEVSGRTFSSYSMGWFRQAQGKEREFVVAISKGGYKYDAVSLEGRFTISKDNAKNTVYLQINSLKPEDTAVYYCASSRAYGSSRLRLADTYEYWGQGTQVTVSS | – |
| binds | – | – | VEGFBII10G04 (VHH) VHH: EVQLVESGGGLVQAGGSLRLSCAASGDTLSRYAMGWFRQAPGKEREFVASINTSGKRTSYADSMKGRFAVSRDNAKNTGYLQMNSLKLEDTATYYCAADRFFGSDSNEPRAYRYWGQGTQVTVSS | – |
| binds | – | – | VEGFBII10C07 (VHH) VHH: EVQLVESGGGLVQAGGSLSLSCAASARAFSNYAMGWFRQVPGREREFVAVITRSPSNTYYTDSVKGRFTISRDNAKNIVYLQMNSLKPEDTAVYYCAAHYWNSDSYTYTDSRWYNYWGQGTQVTVSS | – |
| binds | – | – | VEGFBII07D08 (VHH) VHH: EVQLVESGGGLVQTGGSLRLSCAASGRTFSNYAMAWFRQAPGKEREFVSAINQRGSNTNYADSVKGRFTISRDSAKNSVFLQMNSLKPEDTAVYYCAASTWYGYSTYARREEYRYWGQGTQVTVSS | – |
| binds | – | – | VEGFBII05B02 (VHH) VHH: EVQLVESGGGLVQAGGSLRLSCAASGRTFSTDDVGWFRQAPGKEREFVAVIRWSTGGTYTSDSVKGRFTLSRDNAKNTMYLQMNSLKPEDTAVYYCAARSRPLGAGAWYSGEKHYNYWGQGTQVTVSS | – |
| binds | – | – | VEGFBII03D12 (VHH) VHH: EVQLVESGGGLVQAGGSLRLSCTASTSIYTITVMAWFRQAPGKEREFVAAITWSAPTTYYADSVKGRFTISRDNAKNTVYLRMNSLKPEDSAIYYCAADRFKGRSIVTPSDYRYWGQGTQVTVSS | – |
| – | – | – | VEGFBII42A05 (VHH, periplasmic extract) VHH: EVQLVESGGGLVQPGDSLKLSCAFSGRTFSSYSMGWFRQAQGKEREFVVAISSSGGYIYDSVSLEGRFTISRDNTKNTVYLQMPSLKPEDTADYYCAASRAYGSSRLRLADTYDYWGQGTQVTVSS | % fast [3]: 25%; Binding level (RU) [4]: 118 RU |
| – | – | – | VEGFBII62D10 (VHH, periplasmic extract) VHH: EVQLVESEGGLVQAGDSLRLSCAASGRTFSSYSMGWFRQAQGKEREFVVAISSSGNYKYDSVSLEGRFTISRDNTKNTVYLQINSLKPEDTAVYYCAASRAYGSSRLRLGDTYDYWGQGTQVTVSS | % fast [3]: 40%; Binding level (RU) [4]: 94 RU |
| – | – | – | VEGFBII62A09 (VHH, periplasmic extract) VHH: EVQLVESGGDLVQPGDSLKLSCAASGRTFSSYSMGWFRQAQGKEREFVVAISSSGGYIYDSVSLEGRFTISRDNTKNTVYLQTPSLKPEDTAVYYCAASRAYGSSRLRLADTYDYWGQGTQVTVSS | % fast [3]: 23%; Binding level (RU) [4]: 84 RU |
| – | – | – | VEGFBII60A09 (VHH, periplasmic extract) VHH: EVQLVESGGGLVQPGDSLKLSCAFSGRTFSSYSMGWFRQAQGKEREFVVAISSSGGYIYDSVSLEGRFTISRDNTRNTVYLQTPSLKPEDTADYYCAASRAYGSSRLRLADTYDYWGQGTQVTVSS | % fast [3]: 20%; Binding level (RU) [4]: 106 RU |
| – | – | – | VEGFBII42D05 (VHH, periplasmic extract) VHH: EVQLVESGGGLVQPGDSLKLSCAFSGRTFSSYSMGWFRQAQGKEREFVVAISSSGGYIYDSVSLEGRFTISRDNTKNTVYLQTPSLKPEDTAVYYCAASRAYGSSRLRLADTYDYWGQGTQVTVSS | % fast [3]: 26%; Binding level (RU) [4]: 77 RU |
| – | – | – | VEGFBII56E11 (VHH, periplasmic extract) VHH: EVQLVESGGGLVQPGDSLKLSCAFSGRTFSSYSMGWFRQAQGKEREFVVAISSSGGYIYDSVSLEGRFTISRDNTKNTVYLQTPSLKPEDAADYYCAASRAYGSSRLRLADTYDYWGQGTQVTVSS | % fast [3]: 24%; Binding level (RU) [4]: 76 RU |
| binds | – | – | VEGFBII11D09 (VHH) VHH: EEQLVESGGGLVQAGGSLMLSCAASGRALSSYAIGWFRQAPGREREFVARISWSGANTYYADSVKGRFTISRGNAKNTVYLQMNSLKPEDTAAYYCAAQTTSKYDNYDARAYGYWGQGTQVTVSS | – |

Reference: patent US20170247475A1 (Boehringer Ingelheim, published 2017)
